# Measurements reported in article PMC4312047.
# “And” between values parts separate entries of the source, which are not always exact repeats. Equal entries are not always repeated.
# Legend:
# [1] = target: PHB domain of B. subtilis YuaG (FloT) (Bacillus subtilis); assay: SEC; Superose 6 10/300 GL, buffer A (50 mM TrisHCl pH 7.5, 150 mM NaCl, 5 mM MgCl2), RT; column calibrated with the BIO-RAD Gel Filtration Standard; fractions checked by SDS-PAGE and anti-His immunoblot
# [2] = target: PHB domain of B. subtilis YuaG (FloT) (Bacillus subtilis); assay: native gel or EMSA; blue native PAGE of the isolated PHB domain, according to Wittig et al.
# [3] = target: PHB domain of B. subtilis YuaG (FloT) (Bacillus subtilis); assay: SDS-PAGE (SDS-resistant oligomers); purified PHB domain without cross-linking on denaturing SDS-PAGE; colloidal Coomassie blue staining or anti-His immunoblot
substance,measurement,setting,value
PHB domain of B. subtilis YuaG (FloT) (domain or fragment),stoichiometry N,[1],14.8
same,stoichiometry N,[2],14
same,stoichiometry N,[3],4 and 8
